The chains are these.
B1: rat Reg receptor (rat Reg-binding protein, rat homologue of human EXTL3/EXTR1), 919 amino acids, with N-terminal HA tag (receptor)
chain: YPYDVPDYAMTGYTMLRNGGVGNGGQTCMLRWSNRIRLTWLSFTLFIILVFFPLIAHYYLTTLDEADEAGKRIFGPRAGNELCEVKHVLDLCRIRESVSEELLQLEAKRQELNSEIAKLNLKIEACKKSIENAKQDLLQLKNVISQTEHSYKELMAQNQPKLSLPIRLLPEKDDAGLPPPKVTRGCRLHNCFDYSRCPLTSGFPVFVYDSDQFAFGSYLDPLVKQAFQATVRANVYVTENAAIACLYVVLVGEIQEPAVLQPADLEKQLHSLPHWRTDGHNHVIINLSRKSDTQNLLYNVSTGRAMVAQSTFYAAQYRAGFDLVVSPLVHAMSEPNFMEIPPQVPVKRKYLFTFQGEKIESLRSSLQEARSFEEEMEGDPPADYDDRIIATLKAVQDSKLDQVLVEFTCKNQPKPSLPTEWALCGEREDRLELLKLSTFALIITPGDPSLLISSGCATRLFEALEVGAVPVVLGEQVQLPYHDMLQWNEAALVVPKPRVTEVHFLLRSLSDSDLLAMRRQGRFLWETYFSTADSIFNTVLAMIRTRIQIPAAPIREEVAAEIPHRSGKAAGTDPNMADNGDLDLGPVETEPPYASPKYLRNFTLTVTDCYRSWNSAPGPFHLFPHTPFDPVLPSEAKFLGSGTGFRPIGGGAGGSGKEFQAALGGNVQREQFTVVMLTYEREEVLMNSLERLNGLPYLNKVVVVWNSPKLPSEDLLWPDIGVPIMVVRTEKNSLNNRFLPWNEIETEAILSIDDDAHLRHDEIMFGFRVWREARDRIVGFPGRYHAWDIPHQSWLYNSNYSCELSMVLTGAAFFHKYYAYLYSYVMPQAIRDMVDEYINCEDIAMNFLVSHITRKPPIKVTSRWTFRCPGCPQALSHDDSHFHERHKCINFFVKVYGYMPLLYTQFRVDSVLFKTRLPHDKTKCFKFI
notes: also called rEXTL3; pCI•rEXTL3
B2: rat Reg protein (Reg I) (ligand, UniProt P10758 22-165, looked up)
chain: QEAEEDLPSARITCPEGSNAYSSYCYYFMEDHLSWAEADLFCQNMNSGYLVSVLSQAEGNFLASLIKESGTTAANVWIGLHDPKNNRRWHWSSGSLFLYKSWDTGYPNNSNRGYCVSVTSNSGYKKWRDNSCDAQLSFVCKFKA
modifications: as tracer labelled with 125I using Bolton-Hunter reagent; used unlabelled as competitor
notes: mature; also called rat Reg I
B3: rat Reg-binding protein comprising 364 amino acids (cDNA isolated in Example 5, expression vector pCI-167.1) (receptor)
chain: MTGYTMLRNGGVGNGGQTCMLRWSNRIRLTWLSFTLFIILVFFPLIAHYYLTTLDEADEAGKRIFGPRAGNELCEVKHVLDLCRIRESVSEELLQLEAKRQELNSEIAKLNLKIEACKKSIENAKQDLLQLKNVISQTEHSYKELMAQNQPKLSLPIRLLPEKDDAGLPPPKVTRGCRLHNCFDYSRCPLTSGFPVFVYDSDQFAFGSYLDPLVKQAFQATVRANVYVTENAAIACLYVVLVGEIQEPAVLQPADLEKQLHSLPHWRTDGHNHVIINLSRKSDTQNLLYNVSTGRAMVAQSTFYAAQYRAGFDLVVSPLVHAMSEPNFMEIPRVTIFSLGRGEEEQEKLGVWRGRPPPGWGAGP
notes: also called 1.6 kbp cDNA clone
B4: human REG protein (REG Iα) (ligand, UniProt P05451 23-166, looked up)
chain: QEAQTELPQARISCPEGTNAYRSYCYYFNEDRETWVDADLYCQNMNSGNLVSVLTQAEGAFVASLIKESGTDDFNVWIGLHDPKKNRRWHWSSGSLVSYKSWGIGAPSSVNPGYCVSLTSSTGFQKWKDVPCEDKFSFVCKFKN
notes: mature; also called human REG Iα; REG Ia

The target of assay [1] is B2. Kind of assay: radioligand binding of 125I rat Reg protein to CHO cells stably expressing the rat Reg receptor. On the procedure: (§1) The rat Reg-binding protein (also called EXTL3/EXTR1) expression vector constructed in Example 8 or the control vector was introduced into COS-7 cells by electroporation and expressed transiently. CHO cells expressing the Reg receptor stably were isolated as described above. The cells (7.5×10⁵ cells) were washed with RPMI1640 (Roswell Park Memorial institute 1640 medium) and incubated on ice in the presence of ¹²⁵I labeled rat Reg protein (50 ng/ml, 1.5×10⁵ cpm/ml) with various concentrations of unlabeled rat Reg or human REG protein in RPMI1640 containing 1% fetal calf serum for 2 h. After washing with RPMI1640 three times, cells were solubilized by 1 ml of 100 mM Tris-HCl (pH 7.6), 1 mM EDTA and 1% Triton X-100. The radioactivity of the lysate was-determined by a γ-counter (Cobra, Packard). As a result, rat Reg binding protein expression vector-introduced-COS-7 cells bound to ¹²⁵I-labeled rat Reg protein and the binding was decreased by the addition of unlabeled Reg protein (FIG. 6).

In assay [2] the target is B4. Kind of assay: competition binding on CHO cells stably expressing the rat Reg receptor (line RegR-#3): unlabelled human REG is varied against 125I rat Reg protein (50 ng/ml), gamma counting. On the procedure: as §1
The target in assay [3] is B1. Put plainly: displacement of 125I rat Reg protein from CHO cells stably expressing the rat Reg receptor. As to the method:
as §1

Assay [4] addresses B2. Kind of assay: binding of 10 nM [125I] rat Reg I to transiently transfected COS-7 cells on ice for 2 h, gamma counting, with (+) or without (-) 100-fold unlabelled rat Reg I. On the procedure:
Specifically, first, [¹²⁵I] rat Reg I stock solution (50 ng/μl=˜3.33 μM, 2.7×10⁵ cpm/μl) was diluted to 10 nM using DMEM. In addition, a diluted solution in which non-labeled Reg I stock solution (2250 ng/μl=150 μM) was added at 100-folds the concentration of [¹²⁵I] Reg I (1 μm), was prepared.
3 ml of 2.5×10⁵ cells/ml transfected COS cells were seeded onto 6 well plates and cultured at 37° C. for 2 days. After washing with ice-cold DMEM, 3 ml DMEM containing [¹²⁵I] rat Reg I was added (10 nM, final concentration). In a competitive inhibition experiment, 100-fold amount of non-labeled Reg I coexisted. After keeping on ice for 2 hours and then washing 3 times with DMEM, 1 ml/well of [100 mM Tris-HCl (pH 7.6), 1 mM EDTA, 1% Triton X-100] was added to lyze the cells, and [¹²⁵I] radioactivity was counted by using a γ-counter.

Assay [5] has as its target B1. Put plainly: displacement of 125I rat Reg protein (competitor tracer) from CHO cells stably expressing the rat Reg receptor. As to the method: as §1

Regarding B1, the Kd in assay [1] stood at 4.41 nM. Further, in assay [2], the binding result is on record as “binds”.
B2 displayed a Ki in assay [3] of 1.61 nM.
In the case of B3, the binding result in assay [4] is listed as “binds”.
On to B4, for which, in assay [5], the affinity, expressed as Ki, was 7.41 nM. In other words, the single-digit nanomolar range.
